Results on 1 molecule are retold here after paper PMC8915372.

The test addresses HLA-A*03:01 (HLA class I molecule of HLA-A3+ NBS fibroblasts) (human | human (endogenous in NBS fibroblasts)). Kind of test: affinity purification with mass spectrometry.

ATFYVRTTINK [A3-RPL28^74-84(p76S>F) 11-mer peptide]: the amount of peptide detected by PRM in the HLA class I eluate (fmol/million cells) amounted to 3.67.
